{
  "source": "patent US20110239327A1",
  "about": "“Nematicidal Effects of Cysteine Proteinases and Methods of Use Thereof to Treat Nematode Infestation” (priority 2007, published 2011)",
  "key": {"[1]": {"system": "Meloidogyne spp. J2s", "test": "In vitro mobility of Meloidogyne spp. J2s exposed to plant cysteine proteinases", "assay_type": "cell-based, M. incognita or M. javanica", "protocol": "(§1) Eggs of M. incognita race 1 from North Carolina State University, USA, and M. javanica from Portugal were collected from the roots of infected tomato plants grown in a glasshouse at 23° C. in a 16:8 h light-dark regime. Eggs were extracted using 1% hypochlorite (NaClO) solution (Hussey and Barker, 1973) or by picking egg masses from the infected roots. M. incognita and M. javanica were both used in the experiments and produced similar results. Juveniles (J2) were hatched from the eggs and egg masses in water. Globodera rostochiensis cysts were washed extensively in distilled water. Hatched J2s were obtained by incubating cysts in distilled water for 4 days followed by exposure to potato root diffusate (PRD).\nApproximately 1000 J2s (second juvenile stage) of M. incognita or M. javanica were incubated per well of a 48-well plate with the following active enzyme concentrations (determined by E-64 titration) of papain dissolved in distilled water containing 16 mM L-cysteine (to activate the cysteine proteinase): 1.5 μM, 3 μM, 6.25 μM, 12.5 μM, 25 μM, 50 μM, 75 μM and 100 μM. Control wells contained J2s and distilled water with and without 16 mM L-cysteine, or J2s and 1 mM E-64, with and without 50 μM (active enzyme) papain, which had been preincubated for 25 mins at 40° C. Each enzyme concentration and the controls were set up in duplicate (n=2) or triplicate (n=3). The number of active J2s per well was counted prior to the addition of papain, and then the J2s were incubated in the dark at room temperature for 3 h. The number of mobile J2s per well was counted after 60, 120 and 180 mins. The nematode surfaces were examined for signs of damage using a light microscope (Zeiss Axioskop) at ×20, ×40 and ×100 magnification and photographs were taken with a Xillix Microimager. The same procedure was followed when setting up further experiments to compare the effects of 25 μM papain, 25 μM crude papaya latex (0.625 g/ml), 25 μM stem bromelain (0.18 g/ml) and 25 μM actinidin (active enzyme concentrations) with M. incognita, M. javanica or G. rostochiensis.\nThe data from the in vitro motility experiments were analysed using a repeated measures analysis of variance (as implemented in the GenStat procedure AREPMEASUREMENTS) to compare the overall treatment means, the overall means at each sample time, and the treatment by time interaction. Numbers of nematodes moving at each of the repeated sampling times, 60, 120 and 180 mins, were expressed as a proportion of those moving initially at time 0 (i.e. this latter number was assumed to be the actual number of nematodes initially in the dish). The proportions were transformed to logits prior to analysis. […]"}, "[2]": {"system": "G. rostochiensis J2s", "test": "In vitro mobility and cuticle damage of G. rostochiensis J2s", "assay_type": "cell-based, Globodera rostochiensis", "protocol": "as §1\nApproximately 1000 J2s (second juvenile stage) of M. incognita or M. javanica were incubated per well of a 48-well plate with the following active enzyme concentrations (determined by E-64 titration) of papain dissolved in distilled water containing 16 mM L-cysteine (to activate the cysteine proteinase): 1.5 μM, 3 μM, 6.25 μM, 12.5 μM, 25 μM, 50 μM, 75 μM and 100 μM. […] The number of active J2s per well was counted prior to the addition of papain, and then the J2s were incubated in the dark at room temperature for 3 h. The number of mobile J2s per well was counted after 60, 120 and 180 mins. […]"}, "[3]": {"system": "Heterodera glycines J2", "test": "In vitro live/dead count of Heterodera glycines J2", "assay_type": "cell-based", "conditions": "250 μM active papain", "protocol": "Eggs of M. incognita race 1 from North Carolina State University, USA were collected from tomato-infected roots grown in a glasshouse at 23° C. in a 16:8 h light-dark regime. Eggs were extracted using 1% hypochlorite (NaClO) solution (Hussey and Barker, 1973) or by picking egg masses from tomato-infected roots. Juveniles (J2) were hatched from the eggs and egg masses in water. Heterodera glycines eggs were obtained from soil samples stored in Rothamsted-Research. Second stage juveniles (J2) were hatched from the eggs in water after 10 days. Pratylenchus penetrans were a gift from Dr. Deeren Anne-Marie from the Institute for Agricultural and Fisheries Research, Merelbeke, Belgium. The beneficial nematodes Steinernema feltiae and Heterorhabditis megidis were a gift from Dr. Paul Williams from Becker Underwood.\nControl wells were set up which contained J2s and distilled water with 16 mM L-cysteine. Each enzyme concentration and the controls were set up in duplicate (i.e. n=2). […] The number of live and dead J2s per well was counted after each enzyme incubation. The same procedure was followed when setting up further experiments to compare the effects of these enzymes with Heterodera glycines J2, Pratylenchus penetrans, Steinernema feltiae and Heterorhabditis megidis."}, "[4]": {"system": "M. incognita J2", "test": "In planta bioassay, one soil application: nematode infection of tomato roots", "assay_type": "in vivo, M. incognita on tomato plants", "conditions": "with or without Vydate 125 μl; for Mean number of nematodes in roots: soil 16% organic matter, 11 days; for Reduction of nematode infection of tomato plants: vs controls", "protocol": "Oxamyl is supplied as 10% liquid Vydate. 125 μl of a solution 1000 fold dilution of 10% formulation (kindly supplied by DK from NIU) was applied to 5 g of the soil mixture with 16% organic matter, to give a partial nematicidal effect. Soil mixtures were wetted with PBS pH 7.2, 16 hrs prior nematode application of 1000 or 2000 M. incognita J2. Infected soil mixtures were treated with water (control) or 250 μM of active papain in 16 mM of L-cysteine or a combination of Vydate and 250 μM of active papain in 16 mM of L-cysteine. After 48 hs tomato seedlings one month old were added to the treated soils. After 11 days the roots were washed free of soil and chopped to approximately 2 mm pieces. The root pieces of each tomato plant was placed in muslin bags and stained with acid-fuchsin. The stained roots were examined under microscope and all the nematodes present in the roots were counted. In some experiments the soil mixture was wetted with PBS pH 7.2 or 250 μM of active papain for 16 hs to block the non-specific binding site present in the soil particles. After that approximately 1000 M. incognita J2 were applied to soil mixtures, followed by application of 250 μM of active papain in presence of 16 mM of L-cysteine, or water (control) or Vydate alone or a combination of 250 μM of active papain in presence of 16 mM of L-cysteine and Vydate. After 48 hours tomato seedlings one month old were added to the treated soils and after 11 days post infection nematode development inside root tissues was assessed as described above.\nApproximately 2000 J2 of M. incognita were added to 5 g of 1:6 loam and sand which was previously wetted for 16 hs with PBS pH 7. Then a solution of 300 μM or 150 μM of active papain (in 16 mM of L-cysteine) with and without 125 μl Vydate was added to soil and left to react for 48 hs. After this period of time tomato seedlings one month old were added to the treated soil mixtures and placed in a glasshouse at 23° C. in a 16:8 h light-dark regime (Table 1). After 11 days nematode development in the root tissue was assessed."}},
  "note": "Entries after “also recorded” stand apart in the source; their conditions may differ.",
  "data": [
    {"molecule": "papain (protein, UniProt P00784 134-345, looked up, cysteine proteinase from Carica papaya, Merops C01.001, Sigma P3125) Papain: IPEYVDWRQKGAVTPVKNQGSCGSCWAFSAVVTIEGIIKIRTGNLNEYSEQELLDCDRRSYGCNGGYPWSALQLVAQYGIHYRNTYPYEGVQRYCRSREKGPYAAKTDGVRQVQPYNEGALLYSIANQPVSVVLEAAGKDFQLYRGGIFVGPCGNKVDHAVAAVGYGPNYILIKNSWGTGWGENGYIRIKRGTGNSYGVCGLYTSSFYPVKN", "values": [
      {"measurement": "proportion of active Meloidogyne spp. J2s relative to control", "setting": "[1]; 25 μM active enzyme", "value": "Reductions in the proportion of active worms were evident"},
      {"measurement": "nematodes mobile after 180 mins", "setting": "[1]; 50 μM active papain, with or without pre-incubation with 1 mM E-64", "value": "None"},
      {"measurement": "mobility (proportion of mobile J2s) of Meloidogyne spp. J2s", "setting": "[1]; papain 1.5-100 μM active enzyme, all doses combined, 60-180 mins, vs combined controls", "value": "decreased the mobility; also recorded: decreased linearly"},
      {"measurement": "activity of Meloidogyne J2s relative to combined controls", "setting": "[1]; papain at active enzyme concentrations of 1.5 μM and 3 μM", "value": "caused reductions in the activity"},
      {"measurement": "mobility (proportion of active worms) of G. rostochiensis J2s", "setting": "[2]; 25 μM active enzyme", "value": "reduction in mobility was significantly greater overall; also recorded: Reductions in the proportion of active worms were evident"},
      {"measurement": "incubation needed before damage to the cuticle, compared to Meloidogyne spp.", "setting": "[2]; data not shown", "value": "needed longer incubation periods"},
      {"measurement": "state of the nematodes after incubation", "setting": "[3]; 16 hs", "value": "dead"},
      {"measurement": "recovery", "setting": "[3]; after 48 hs", "value": "no recovery"},
      {"measurement": "Mean number of nematodes in roots", "setting": "[4]; papain 150 μM", "value": 272},
      {"measurement": "Reduction of nematode infection of tomato plants", "setting": "[4]; papain 150 μM", "value": 14, "unit": "%"},
      {"measurement": "Mean number of nematodes in roots", "setting": "[4]; papain 300 μM", "value": 132},
      {"measurement": "Reduction of nematode infection of tomato plants", "setting": "[4]; papain 300 μM", "value": 60, "unit": "%"}
    ]}
  ]
}
